Non-standard residues stand in square brackets, D forms with d. No end group written: not given here. Hyp = O=C(O)[C@@H]1C[C@@H](O)CN1

B1: 9r, (PGOGPGPOPOGOGPOPGOOPGGOOPPG-G3)2KG3K^CF (peptide)
chain: PG[Hyp]GPGP[Hyp]P[Hyp]G[Hyp]GP[Hyp]PG[Hyp][Hyp]PGG[Hyp][Hyp]PPGGGGKGGGGPP[Hyp][Hyp]GGP[Hyp][Hyp]GP[Hyp]PG[Hyp]G[Hyp]P[Hyp]PGPG[Hyp]GP
modifications: also: branched dimer: two arms grown from both amines of Lys31, residues 32-61 are the second arm written reversed, G3K with carboxyfluorescein on the C-terminal Lys attached at branch point Lys31
B2: 6r, (PGOPPOGGPOOGOGOPGP-G3)2KG3K^CF (peptide)
chain: PG[Hyp]PP[Hyp]GGP[Hyp][Hyp]G[Hyp]G[Hyp]PGPGGGKGGGPGP[Hyp]G[Hyp]G[Hyp][Hyp]PGG[Hyp]PP[Hyp]GP
modifications: also: branched dimer: two arms grown from both amines of Lys22, residues 23-43 are the second arm written reversed, G3K with carboxyfluorescein on the C-terminal Lys attached at branch point Lys22
B3: 5r, (PPOGGPOOGOGOPGP-G3)2KG3K^CF (peptide)
chain: PP[Hyp]GGP[Hyp][Hyp]G[Hyp]G[Hyp]PGPGGGKGGGPGP[Hyp]G[Hyp]G[Hyp][Hyp]PGG[Hyp]PP
modifications: also: branched dimer: two arms grown from both amines of Lys19, residues 20-37 are the second arm written reversed, G3K with carboxyfluorescein on the C-terminal Lys attached at branch point Lys19

The first assay addresses porcine gelatin (denatured collagen) (porcine). The assay is described as follows: fluorescence in crosslinked gelatin film after 6 washes at 4 °C (FIG. 6A).
Consider B1, for which the percent removal after washes at 4 °C was > 95%.

Consider B2, for which the percent removal after washes at 4 °C is > 95%.

On to B3, for which the percent removal after washes at 4 °C is > 95%.

A further assay shares this target. The assay is described as follows: fluorescence; CHP 15 µM premixed into 10% porcine gelatin, 5 washes at 4 °C (FIG. 6B).
On to B1, for which the percent removal after washes at 4 °C was > 95%.

On to B2, for which the percent removal after washes at 4 °C was > 95%.

As to B3, the percent removal after washes at 4 °C was > 95%.
